Patent US7122374

Assays:
Assay in all cases: ELISA, peptide coated at 1 µg/mL, mAb4G8 diluted 1000 times, HRP anti-mouse Igs
Aβ1-40 = biological target: Aβ1-40
AβN3pE-42 = biological target: AβN3pE-42
AβN3E-42 = biological target: AβN3E-42
Sequence of AβN3E-42 (peptide, as listed by the source): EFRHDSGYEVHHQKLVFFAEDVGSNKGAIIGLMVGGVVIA

Sequence of Aβ1-40 (peptide, as listed by the source): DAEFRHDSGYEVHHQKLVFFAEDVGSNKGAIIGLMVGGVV

absorbance at 450 nm (Aβ1-40): 1.57 A450
absorbance at 450 nm (AβN3pE-42): 2.27 A450
absorbance at 450 nm (AβN3E-42): 1.39 A450
Substance: monoclonal antibody mAb4G8 (SENETEC Inc)
